Experimental data: PMC4909209

Molecular target: ubiquitin tagged Ac-AChBP (Aplysia californica acetylcholine binding protein) (Aplysia californica)
Assay: SEC; analytical Superdex 200 10/300 calibrated with molecular weight standards; oligomerization state in solution

- stoichiometry N: 5
Substance: ubiquitin tagged Ac-AChBP (Aplysia californica acetylcholine binding protein) (natural protein)
